Measurements published in patent publication US5998142.

Assays:
[1] = molecular target: T1, neutrophil elastase (hNE) (Homo sapiens) (UniProt P08246); assay: inhibition
T1 sequence: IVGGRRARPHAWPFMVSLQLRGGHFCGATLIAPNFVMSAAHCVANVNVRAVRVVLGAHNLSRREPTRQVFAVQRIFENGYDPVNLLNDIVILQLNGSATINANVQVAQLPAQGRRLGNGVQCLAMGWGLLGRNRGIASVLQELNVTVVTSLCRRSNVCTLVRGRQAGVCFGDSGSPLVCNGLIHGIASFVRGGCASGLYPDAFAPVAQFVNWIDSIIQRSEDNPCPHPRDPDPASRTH

[2] = molecular target: bradykinin, N-bromoacetylated (BrBK) (UniProt P01042); details: 5'-GMPS (5' guanosine monophosphorothioate)
Chain of bradykinin, N-bromoacetylated (BrBK) (P01042 whole entry, looked up): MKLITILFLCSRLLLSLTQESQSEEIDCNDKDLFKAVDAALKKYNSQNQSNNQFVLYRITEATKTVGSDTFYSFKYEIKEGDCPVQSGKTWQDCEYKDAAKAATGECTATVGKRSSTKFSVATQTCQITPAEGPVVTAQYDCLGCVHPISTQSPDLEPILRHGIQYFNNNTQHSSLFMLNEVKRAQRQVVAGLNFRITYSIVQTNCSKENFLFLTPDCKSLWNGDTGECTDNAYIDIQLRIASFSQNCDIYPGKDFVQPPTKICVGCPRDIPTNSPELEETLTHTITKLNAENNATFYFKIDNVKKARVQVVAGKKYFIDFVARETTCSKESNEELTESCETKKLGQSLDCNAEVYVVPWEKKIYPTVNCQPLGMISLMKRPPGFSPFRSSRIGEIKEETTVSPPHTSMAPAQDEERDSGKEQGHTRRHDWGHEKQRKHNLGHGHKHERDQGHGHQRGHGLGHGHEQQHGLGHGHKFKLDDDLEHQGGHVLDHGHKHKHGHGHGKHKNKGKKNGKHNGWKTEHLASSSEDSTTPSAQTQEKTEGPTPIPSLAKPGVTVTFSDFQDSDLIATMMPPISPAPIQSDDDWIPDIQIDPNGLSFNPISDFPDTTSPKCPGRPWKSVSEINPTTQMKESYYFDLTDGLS

Sequence “GGGAGGACGAUGCGGNNNNNNNNNNNNNNNNNNNNNNNNNNNNNNNNNNNNNNNNCAGACGACGAGCGGGA [40N7.1 ssDNA pool]” has an activity ([1]; kinact/KI, pool, room temperature) of 1.86e+06 M⁻¹ min⁻¹.

With “GGGAGCUCAGAAUAAACGCUCAANNNNNNNNNNNNNNNNNNNNNNNNNNNNNNUUCGACAUGAGGCCCGGAUCCGGC [30N1 pool]” the K half [2] was 13 mM.

“GGGAGGACGAUGCGGNNNNNNNNNNNNNNNNNNNNNNNNNNNNNNNNNNNNNNNNCAGACGACGAGCGGGA [40N7.1 rd0 RNA:DNA:valP]” was tested, and the activity ([1]; 2'-NH2 U and C, kinact/[I], unit not given, pool, 37 C) was 290000.

Sequence “GGGAGGACGATGCGGCAGNNGGNNCAGGTAATGTGAGTAACCTCTACTACTCTGCAGACGACGAGCGGGA [ED15]” has an activity ([1]; kinact/KI, room temperature) of 4.8e+08 M⁻¹ min⁻¹.

For “GGGAGGACGATGCGGACCACAGCCACTAGNNGCATCGTCCTCTGCGTCCAGACGACGAGCGGGA [ED21]”, the activity ([1]; kinact/KI, room temperature) was 3.2e+06 M⁻¹ min⁻¹.
